B1: LF15: anti-human Pear1 monoclonal antibody; VH SEQ ID NO: 4, VL SEQ ID NO: 19 (antibody, V domains shown)
VH: EVQLQQSGPELVKPGASMKISCKASGYSFTGYTMNWVKQSHGENLEWIGVINPYNGGTSYNQKFKGKATLTVDKSFSTAYMEILSLTSEDSAVYYCSRGGGNSWFAYWGQGTLVTVSA
VL: DIQMTQTSSYLSVSLGGRVTITCKASDHINNWLAWYQQKPGNAPRLLISGATSLETGVPSRFSGSGSGTDYSLTITSLQTEDVATYYCQQYWSIPTFGGGTRLEIK
B2: LF11: anti-human Pear1 monoclonal antibody; VH SEQ ID NO: 2, VL SEQ ID NO: 18 (antibody, V domains shown)
VH: EVQLQQSGPELVKPGASMKISCKASGYSFTGYPMNWVKQTHGKNLEWIGLINPYNGGTSYNQKFKGKATLTVDKSSSTAYMELLSLTSDESAVYYCARGGVRPFDFWGQGTLVTVSA
VL: DIVITQSPAIMSASPGEKVTMTCSARSSVSYMYWYQQKPGSSPRLLIYDTSKLASGVPVRFSGSGSGTSYSLTISRMEAEDAATYFCQQWSSYPPTFGGGTKLEIK
B3: LF16: anti-human Pear1 monoclonal antibody; VH SEQ ID NO: 5, VL SEQ ID NO: 20 (antibody, V domains shown)
VH: EVQLQQSGPELVKPGASMKISCKASGYAFTGYTMNWVKQSHGKNLDWIGVINGYNGGTSYNQKFKGKATLTVDKSSSTAYMELLSLTSEDSAIYYCARGGPTTGFVYWGQGTLVTVSA
VL: DIQMTQTSSSFSVSLGDRVTITCKASEDIYNRLAWYQQKPGNAPRLLISGATSLETGVPSRFSGSGSGKDYTLSITSLQTEDVATYYCQQYWSTPTFGAGTKLELK

Test system: IPF fibroblasts
Assay: qPCR of extracellular matrix genes collagen 7a1 and matrix metalloproteinase inhibitor 1 in TGFβ-induced IPF fibroblasts
Format: cell-based, human
Settings: Example 3, FIG. 4-6, TGFβ-induced IPF fibroblasts treated 48 hours, 18sRNA reference
Source text: IPF fibroblasts of patients were purchased from the ATCC cell library.
IPF fibroblasts in Method 2 were collected. Total mRNA was extracted by Trizol method (Invitrogen, Carlsbad, CA) according to standard protocols. Complementary DNA was synthesized using reverse transcriptase (Takara). ABI7000 Real-time PCR instrument (Life Technologies) was used to detect gene expression and the PCR primer sequences are shown in Table 1. The 18sRNA gene was used as an internal reference.
Experimental groups including anti-Pear1 antibodies LF11, LF15, LF16 used alone, and their combinations with pirfenidone or nintedanib respectively, and experimental groups including pirfenidone or nintedanib used alone and a control group were established. TGFβ-induced IPF fibroblasts were treated for 48 hours, and then cells were collected. The qPCR method was used to detect the effect on the synthesis of extracellular matrix proteins collagen 7a1 and matrix metalloproteinase inhibitor 1 (primers are shown in Table 1).

| Molecule | inhibition of expression of extracellular matrix proteins (collagen 7a1, matrix metalloproteinase inhibitor 1) in IPF fibroblasts |
| --- | --- |
| Cc1ccc(=O)n(-c2ccccc2)c1 [pirfenidone, reference compound] | inhibit the expression of extracellular matrix proteins in IPF fibroblasts to some extent |
| COC(=O)c1ccc2c(c1)NC(=O)/C2=C(\Nc1ccc(N(C)C(=O)CN2CCN(C)CC2)cc1)c1ccccc1 [nintedanib, reference compound] | inhibit the expression of extracellular matrix proteins in IPF fibroblasts to some extent |
| B1 | inhibit the expression of extracellular matrix proteins in IPF fibroblasts to some extent |
| B2 | inhibit the expression of extracellular matrix proteins in IPF fibroblasts to some extent |
| B3 | inhibit the expression of extracellular matrix proteins in IPF fibroblasts to some extent |
